In patent US20030055006A1, “Combinations and compositions which interfere with VEGF/VEGF and angiopoietin/tie receptor function and their use” (Schering Aktiengesellschaft, priority 2000, published 2003):

Columns and labels:
[1] = tested on: A375v human melanoma xenograft (A375v/pCEP, A375v/sTie2); test: Tumor growth in A375v human melanoma xenograft model, Example 1 (VEGF receptor kinase inhibitor and/or sTie2); format: in vivo, Swiss nu/nu mice; conditions: s.c. A375v xenograft; kinase inhibitor 50 mg/kg daily oral; sTie2 expressed by tumor cells; untreated control 24 days
Method: Human melanoma cell line A375v was stably transfected to overexpress the extracellular ligand-neutralizing domain of human Tie2 receptor tyrosine kinase (sTie2; compound II) (Siemeister et al., Cancer Res. 59, 3185-3191, 1999). For control, A375v cells were stably transfected with the empty expression vector (A375v/pCEP). Swiss nu/nu mice were s.c. injected with 1×10^6 transfected A375v/sTie2 or A375v/pCEP tumor cells, respectively. Animals receiving compound I were treated for up to […] with daily oral doses of 50 mg/kg of the VEGF receptor tyrosine kinase inhibitor (4-Chlorophenyl)[4-(4-pyridylmethyl)-phthalazin-1-yl]ammonium hydrogen succinate (Wood et al., Cancer Res. 60, 2178-2189, 2000). Various modes of treatment are described in Table 1. Tumor growth was determined by caliper measurement of the largest diameter and its perpendicular.

[2] = tested on: Tumors derived from A375v/pCEP cells; test: Tumor growth in A375v xenograft, Example 4 (VEGF receptor kinase inhibitor and/or scFv-tTF conjugate); format: in vivo, nude mice; conditions: kinase inhibitor 50 mg/kg daily oral; scFv-tTF conjugate 20 μg i.v. on day 0 and day 4; untreated control approx. 1000 mm^3
Method: (§1) Tumors derived from A375v/pCEP cells were induced in nude mice as described in example 1. Animals receiving compound I were treated for up to 28 days with daily oral doses of 50 mg/kg of the VEGF receptor tyrosine kinase inhibitor (4-Chlorophenyl)[4-(4-pyridylmethyl)-phthalazin-1-yl]ammonium hydrogen succinate (Wood et al., Cancer Res. 60, 2178-2189, 2000). Compound II consists of a single chain antibody (scFv) specifically recognizing the human VEGF-A/VEGF receptor I complex (WO 99/19361) which was expressed in E. coli and conjugated to coagulation-inducing recombinant human truncated tissue factor (tTF) by methods descibed by Ran et al. (Cancer Res. 58, 46464653, 1998). When tumors reached a size of approx. 200 mm^3 animals receiving compound II were treated on day 0 and on day 4 with intravenous doses of 20 μg of the scFv-tTF conjugate. Various modes of treatment are described in Table 4. Animals were sacrificed for ethical reasons when tumors of group 1 exceeded a volume of approx. 1000 mm^3. Tumor growth was determined by caliper measurement of the largest diameter and its perpendicular.

[3] = tested on: Tumors derived from A375v/pCEP cells; test: Tumor growth in A375v xenograft, Example 6 (VEGF receptor kinase inhibitor and/or L19 scFv-tTF); format: in vivo, nude mice; conditions: kinase inhibitor 50 mg/kg daily oral; L19 scFv-tTF single i.v. dose of 20 μg; untreated control approx. 1000 mm^3
Method: Tumors derived from A375v/pCEP cells were induced in nude mice as described in example 1. Animals receiving compound I were treated for up to 28 days with daily oral doses of 50 mg/kg of the VEGF receptor tyrosine kinase inhibitor (4-Chlorophenyl)[4-(4-pyridylmethyl)-phthalazin-1-yl]ammonium hydrogen succinate (Wood et al., Cancer Res. 60, 2178-2189, 2000). Compound II consists of L19 scFv-tTF fusion protein as described in example 5. When tumors reached a size of approx. 200 mm^3 animals receiving compound II were treated with a single intravenous dose of 20 μg of L19 scFv-tTF in 200 μl saline. Various modes of treatment are described in Table 6. Animals were sacrificed for ethical reasons when tumors of -group 1 exceeded a volume of approx. 1000 mm^3. Tumor growth was determined by caliper measurement of the largest diameter and its perpendicular.

[4] = tested on: Tumors derived from A375v/sTie2 cells and from A375v/pCEP cells; test: Tumor growth in A375v xenograft, Example 3 (scFv-tTF conjugate and/or sTie2); format: in vivo, nude mice; conditions: sTie2 expressed by tumor cells; untreated control approx. 1000 mm^3
Method: as §1, with “derived from A375v/sTie2 cells and” for “derived”, “A” for “Animals receiving compound I were treated for up to 28 days with daily oral doses of 50 mg/kg of the VEGF receptor tyrosine kinase inhibitor (4-Chlorophenyl)[4-(4-pyridylmethyl)-phthalazin-1-yl]ammonium hydrogen succinate (Wood et al., Cancer Res. 60, 2178-2189, 2000). Compound II consists of a”, “99/19361)” for “99/19361) which”, “4646-4653,” for “46464653,”, “I” for “II”, “3.” for “4.”

[5] = tested on: Tumors derived from A375v/sTie2 cells and from A375v/pCEP cells; test: Tumor growth in A375v xenograft, Example 2 (mAb 4301-42-35 and/or sTie2); format: in vivo, nude mice; conditions: sTie2 expressed by tumor cells; untreated control approx. 1000 mm^3
Method: Tumors derived from A375v/sTie2 cells and from A375v/pCEP cells were induced in nude mice as described in example 1. Animals receiving compound I were treated twice weekly over a period of time of 4 weeks with intraperitoneal doses of 200 μg of the VEGF-A-neutralizing monoclonal antibody (mAb) 4301-42-35 (Schlaeppi et al., J. Cancer Res. Clin. Oncol. 125, 336-342, 1999). Various modes of treatment are descibed in Table 2. Animals were sacrificed for ethical reasons when tumors of group 1 exceeded a volume of approx. 1000 mm^3. Tumor growth was determined by caliper measurement of the largest diameter and its perpendicular.

[6] = tested on: Tumors derived from A375v/sTie2 cells and from A375v/pCEP cells; test: Tumor growth in A375v xenograft, Example 5 (L19 scFv-tTF and/or sTie2); format: in vivo, nude mice; conditions: sTie2 expressed by tumor cells; untreated control approx. 1000 mm^3
Description: Tumors derived from A375v/sTie2 cells and from A375v/pCEP cells were induced in nude mice as described in example 1. A fusion protein (L19 scFv-tTF) consisting of L19 single chain antibody specifically recognizing the oncofoetal ED-B domain of fibronectin and the extracellular domain of tissue factor was expressed in E. coli as described by Nilsson et al. (Nat. Med., in press). Further, L19 scFv-tTF data have been represented by D. Neri and F. Nilsson (Meeting “Advances in the application of monoclonal antibodies in clinical oncology”, Samos, Greece, 31. May-2. June 2000). When tumors reached a size of approx. 200 mm^3 animals receiving compound I were treated with a single intravenous dose of 20 μg of L19 scFv-tTF in 200 μl saline. Various modes of treatment are described in Table 5. Animals were sacrificed for ethical reasons when tumors of group 1 exceeded a volume of approx. 1000 mm^3. Tumor growth was determined by caliper measurement of the largest diameter and its perpendicular.

Molecule: Clc1ccc(Nc2nnc(Cc3ccncc3)c3ccccc23)cc1.O=C(O)CCC(=O)O [(4-Chlorophenyl)[4-(4-pyridylmethyl)-phthalazin-1-yl]ammonium hydrogen succinate]
- time for tumors to grow to a size of approx. 250 mm^2 (mean area) [1]: 31 days
- tumor volume within 28 days [2]: approx. 550 mm^3
- tumor volume within 28 days [3]: approx. 550 mm^3

B1: sTie2: extracellular ligand-neutralizing domain of human Tie2 receptor tyrosine kinase, overexpressed by transfected A375v cells (protein, UniProt Q02763 23-748, looked up)
extracellular domain: AMDLILINSLPLVSDAETSLTCIASGWRPHEPITIGRDFEALMNQHQDPLEVTQDVTREWAKKVVWKREKASKINGAYFCEGRVRGEAIRIRTMKMRQQASFLPATLTMTVDKGDNVNISFKKVLIKEEDAVIYKNGSFIHSVPRHEVPDILEVHLPHAQPQDAGVYSARYIGGNLFTSAFTRLIVRRCEAQKWGPECNHLCTACMNNGVCHEDTGECICPPGFMGRTCEKACELHTFGRTCKERCSGQEGCKSYVFCLPDPYGCSCATGWKGLQCNEACHPGFYGPDCKLRCSCNNGEMCDRFQGCLCSPGWQGLQCEREGIQRMTPKIVDLPDHIEVNSGKFNPICKASGWPLPTNEEMTLVKPDGTVLHPKDFNHTDHFSVAIFTIHRILPPDSGVWVCSVNTVAGMVEKPFNISVKVLPKPLNAPNVIDTGHNFAVINISSEPYFGDGPIKSKKLLYKPVNHYEAWQHIQVTNEIVTLNYLEPRTEYELCVQLVRRGEGGEGHPGPVRRFTTASIGLPPPRGLNLLPKSQTTLNLTWQPIFPSSEDDFYVEVERRSVQKSDQQNIKVPGNLTSVLLNNLHPREQYVVRARVNTKAQGEWSEDLTAWTLSDILPPQPENIKISNITHSSAVISWTILDGYSISSITIRYKVQGKNEDQHVDVKIKNATITQYQLKGLEPETAYQVDIFAENNIGSSNPAFSHELVTLPESQAPADLGGGKMLL
modifications: extracellular domain
notes: extracellular ligand-neutralizing domain of human Tie2 receptor tyrosine kinase, overexpressed by transfected A375v cells
- time for tumors to grow to a size of approx. 250 mm^2 (mean area) [1]: 31 days
- tumor volume within 28 day [4]: approx. 600 mm^2
- tumor volume within 28 day [5]: approx. 600 mm^2
- tumor volume within 28 day [6]: approx. 600 mm^2
